Measurements from article PMC4434323.

How the values were obtained:
[1] = target: T1, C07E3.6 (C07E3.6) (Caenorhabditis elegans) (UniProt Q17792)
T1 sequence: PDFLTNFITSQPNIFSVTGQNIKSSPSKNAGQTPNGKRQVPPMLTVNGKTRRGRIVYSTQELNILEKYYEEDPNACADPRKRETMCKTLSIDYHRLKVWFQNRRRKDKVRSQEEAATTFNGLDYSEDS

[2] = target: T2, ceh-23 (ZK652.5) (Caenorhabditis elegans) (UniProt P34663)
T2 sequence: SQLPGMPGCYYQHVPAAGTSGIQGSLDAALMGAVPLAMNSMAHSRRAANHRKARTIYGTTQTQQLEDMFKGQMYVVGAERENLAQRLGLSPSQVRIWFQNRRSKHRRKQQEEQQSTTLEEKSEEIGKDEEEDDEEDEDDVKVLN

[3] = target: T3, eyg-1 (Y53C12C.1) (Caenorhabditis elegans) (UniProt O01996)
T3 sequence: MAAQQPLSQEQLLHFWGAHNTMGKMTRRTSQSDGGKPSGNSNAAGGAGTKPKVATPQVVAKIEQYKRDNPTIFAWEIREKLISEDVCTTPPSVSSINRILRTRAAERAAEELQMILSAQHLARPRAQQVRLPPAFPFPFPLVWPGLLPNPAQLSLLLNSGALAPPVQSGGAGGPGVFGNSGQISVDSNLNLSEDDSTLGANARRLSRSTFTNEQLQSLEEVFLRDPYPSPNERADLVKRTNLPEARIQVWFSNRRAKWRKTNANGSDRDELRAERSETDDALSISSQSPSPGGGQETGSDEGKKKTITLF

[4] = target: T4, ceh-51 (Y80D3A.3) (Caenorhabditis elegans) (UniProt Q9U1R1)
T4 sequence: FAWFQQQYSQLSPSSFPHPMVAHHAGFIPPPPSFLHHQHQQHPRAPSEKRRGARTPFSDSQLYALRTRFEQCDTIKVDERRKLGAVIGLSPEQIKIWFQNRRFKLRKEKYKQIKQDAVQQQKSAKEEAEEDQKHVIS

[5] = target: T5, T07C12.11 (T07C12.11) (Caenorhabditis elegans) (UniProt G5EGG9)
T5 sequence: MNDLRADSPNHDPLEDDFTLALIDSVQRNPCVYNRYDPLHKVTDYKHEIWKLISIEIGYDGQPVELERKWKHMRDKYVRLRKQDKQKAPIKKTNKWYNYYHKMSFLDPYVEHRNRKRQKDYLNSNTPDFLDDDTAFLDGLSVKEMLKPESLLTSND

[6] = target: T6, atf-6 (F45E6.2) (Caenorhabditis elegans) (UniProt Q20435)
T6 sequence: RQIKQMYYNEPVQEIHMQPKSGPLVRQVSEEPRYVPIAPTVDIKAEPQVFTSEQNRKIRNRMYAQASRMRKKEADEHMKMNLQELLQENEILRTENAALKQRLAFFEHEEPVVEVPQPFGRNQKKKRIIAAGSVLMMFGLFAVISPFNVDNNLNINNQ

[7] = target: T7, ceh-18 (ZC64.3) (Caenorhabditis elegans) (UniProt P41934)
T7 sequence: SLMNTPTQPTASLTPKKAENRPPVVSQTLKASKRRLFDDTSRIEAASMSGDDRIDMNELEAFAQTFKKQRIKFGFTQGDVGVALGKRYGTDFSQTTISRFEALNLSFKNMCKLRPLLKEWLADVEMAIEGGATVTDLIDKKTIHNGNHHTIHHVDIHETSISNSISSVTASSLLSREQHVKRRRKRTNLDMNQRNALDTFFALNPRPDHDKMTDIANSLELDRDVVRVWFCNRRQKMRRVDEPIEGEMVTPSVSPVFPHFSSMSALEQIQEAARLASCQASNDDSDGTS

[8] = target: T8, unc-120 (D1081.2) (Caenorhabditis elegans) (UniProt Q18955)
T8 sequence: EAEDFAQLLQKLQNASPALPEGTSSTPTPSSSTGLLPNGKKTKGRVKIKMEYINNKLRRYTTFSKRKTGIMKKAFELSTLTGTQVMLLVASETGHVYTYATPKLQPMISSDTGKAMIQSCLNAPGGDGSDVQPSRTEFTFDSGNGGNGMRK

GTTAATTA (double strand) [8-mer GTTAATTA]
binding signal (PBM E-score (-0.5 to 0.5)) [1]: 0.498
binding signal (PBM E-score (-0.5 to 0.5)) [2]: 0.497
binding signal (PBM E-score (-0.5 to 0.5)) [3]: 0.481

GCACTTAA (double strand) [8-mer GCACTTAA]
binding signal (PBM E-score (-0.5 to 0.5)) [4]: 0.469

CTTACGTA (double strand) [8-mer CTTACGTA]
binding signal (PBM E-score (-0.5 to 0.5)) [5]: 0.495
binding signal (PBM E-score (-0.5 to 0.5)) [6]: 0.456

CATATGCA (double strand) [8-mer CATATGCA]
binding signal (PBM E-score (-0.5 to 0.5)) [7]: 0.478

CTTGCGTA (double strand) [8-mer CTTGCGTA]
binding signal (PBM E-score (-0.5 to 0.5)) [5]: 0.487

ACCTTATA (double strand) [8-mer ACCTTATA]
binding signal (PBM E-score (-0.5 to 0.5)) [8]: 0.466

GTAATTAC (double strand) [8-mer GTAATTAC]
binding signal (PBM E-score (-0.5 to 0.5)) [4]: 0.478
binding signal (PBM E-score (-0.5 to 0.5)) [3]: 0.482

AAATAAGG (double strand) [8-mer AAATAAGG]
binding signal (PBM E-score (-0.5 to 0.5)) [8]: 0.464

CCATAAAA (double strand) [8-mer CCATAAAA]
binding signal (PBM E-score (-0.5 to 0.5)) [8]: 0.459

ATACGTAA (double strand) [8-mer ATACGTAA]
binding signal (PBM E-score (-0.5 to 0.5)) [5]: 0.491

CAATTAAC (double strand) [8-mer CAATTAAC]
binding signal (PBM E-score (-0.5 to 0.5)) [1]: 0.495
binding signal (PBM E-score (-0.5 to 0.5)) [3]: 0.476

CTTACGCA (double strand) [8-mer CTTACGCA]
binding signal (PBM E-score (-0.5 to 0.5)) [5]: 0.487

TATAAGGA (double strand) [8-mer TATAAGGA]
binding signal (PBM E-score (-0.5 to 0.5)) [8]: 0.472

ATGCATAA (double strand) [8-mer ATGCATAA]
binding signal (PBM E-score (-0.5 to 0.5)) [7]: 0.495

TATTAATA (double strand) [8-mer TATTAATA]
binding signal (PBM E-score (-0.5 to 0.5)) [4]: 0.483

GCCTTATA (double strand) [8-mer GCCTTATA]
binding signal (PBM E-score (-0.5 to 0.5)) [8]: 0.47

CTAATTAG (double strand) [8-mer CTAATTAG]
binding signal (PBM E-score (-0.5 to 0.5)) [1]: 0.497
binding signal (PBM E-score (-0.5 to 0.5)) [2]: 0.495
binding signal (PBM E-score (-0.5 to 0.5)) [3]: 0.473

AACGTAAG (double strand) [8-mer AACGTAAG]
binding signal (PBM E-score (-0.5 to 0.5)) [5]: 0.486

TAATTAAA (double strand) [8-mer TAATTAAA]
binding signal (PBM E-score (-0.5 to 0.5)) [2]: 0.493

ATTATGCA (double strand) [8-mer ATTATGCA]
binding signal (PBM E-score (-0.5 to 0.5)) [7]: 0.496

ATATGCAC (double strand) [8-mer ATATGCAC]
binding signal (PBM E-score (-0.5 to 0.5)) [7]: 0.477

ATGCGCAT (double strand) [8-mer ATGCGCAT]
binding signal (PBM E-score (-0.5 to 0.5)) [3]: 0.475

GAATATTC (double strand) [8-mer GAATATTC]
binding signal (PBM E-score (-0.5 to 0.5)) [7]: 0.494

GTAATTAA (double strand) [8-mer GTAATTAA]
binding signal (PBM E-score (-0.5 to 0.5)) [1]: 0.497
binding signal (PBM E-score (-0.5 to 0.5)) [2]: 0.492

CTAATTAA (double strand) [8-mer CTAATTAA]
binding signal (PBM E-score (-0.5 to 0.5)) [1]: 0.498
binding signal (PBM E-score (-0.5 to 0.5)) [2]: 0.498
binding signal (PBM E-score (-0.5 to 0.5)) [3]: 0.489

GGTAATTA (double strand) [8-mer GGTAATTA]
binding signal (PBM E-score (-0.5 to 0.5)) [1]: 0.497
binding signal (PBM E-score (-0.5 to 0.5)) [2]: 0.494

CATAATTA (double strand) [8-mer CATAATTA]
binding signal (PBM E-score (-0.5 to 0.5)) [1]: 0.495
binding signal (PBM E-score (-0.5 to 0.5)) [7]: 0.483
binding signal (PBM E-score (-0.5 to 0.5)) [2]: 0.493

TATGCAAA (double strand) [8-mer TATGCAAA]
binding signal (PBM E-score (-0.5 to 0.5)) [7]: 0.486

TAATTACA (double strand) [8-mer TAATTACA]
binding signal (PBM E-score (-0.5 to 0.5)) [4]: 0.467

GCTATTAA (double strand) [8-mer GCTATTAA]
binding signal (PBM E-score (-0.5 to 0.5)) [4]: 0.467

ATTAATTA (double strand) [8-mer ATTAATTA]
binding signal (PBM E-score (-0.5 to 0.5)) [1]: 0.495
binding signal (PBM E-score (-0.5 to 0.5)) [2]: 0.495
binding signal (PBM E-score (-0.5 to 0.5)) [4]: 0.474
